Target: T1, TRAF6 (TNFR-associated factor 6), endogenous (mouse (endogenous in mouse SMCs), UniProt P70196 1-530)
T1 construct: TRAF6, E3 ubiquitin ligase, endogenously expressed in mouse aortic smooth muscle cells; source: endogenous, mouse SMC lysate
T1 sequence (looked up): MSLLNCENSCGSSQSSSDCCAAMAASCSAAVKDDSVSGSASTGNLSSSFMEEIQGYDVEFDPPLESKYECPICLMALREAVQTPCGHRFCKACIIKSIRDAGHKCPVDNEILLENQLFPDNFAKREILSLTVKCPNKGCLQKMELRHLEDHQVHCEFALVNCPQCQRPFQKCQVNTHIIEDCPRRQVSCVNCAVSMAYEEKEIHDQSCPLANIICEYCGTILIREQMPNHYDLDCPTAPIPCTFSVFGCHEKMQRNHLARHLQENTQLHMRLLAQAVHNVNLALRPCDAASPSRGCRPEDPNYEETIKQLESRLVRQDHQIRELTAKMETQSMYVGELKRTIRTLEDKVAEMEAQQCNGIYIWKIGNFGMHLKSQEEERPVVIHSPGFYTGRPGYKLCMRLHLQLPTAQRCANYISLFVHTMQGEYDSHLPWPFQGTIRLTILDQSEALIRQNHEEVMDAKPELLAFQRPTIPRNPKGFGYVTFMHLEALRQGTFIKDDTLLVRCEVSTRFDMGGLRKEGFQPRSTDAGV
Assay: co-IP; endogenous TRAF6 immunoprecipitated with anti-TRAF6(D-10) agarose overnight at 4 °C from lysates of mouse SMCs transduced with HA-USP20, serum starved 1 h and stimulated with IL-1β (1 ng/ml, 20 min); lysis buffer 50 mM Hepes pH 7.5, 2 mM EDTA, 250 mM NaCl, 10% glycerol, 0.5% Nonidet P-40; immunoblot for HA
Conditions: partners not purified

B1: HA-tagged USP20-S334A (mouse) (enzyme, UniProt Q8C6M1 1-916, looked up)
chain: MGDARDLCPHLDCIGEVTKEDLLLKSKGTCQSCGVAGPNLWACLQVTCPYVGCGESFADHSSIHAQVKKHNLTVNLTTFRVWCYACEREVFLEQRLAVHLASSSARLSEQDSPPPSHPLKAVPIAVADEGESESEDDDLKPRGLTGMKNLGNSCYMNAALQALSNCPPLTQFFLECGGLVRTDKKPALCKSYQKLISEVWHKKRPSYVVPTSLSHGIKLVNPMFRGYAQQDTQEFLRCLMDQLHEELKEPMVAAVAALTDARDSDSSDTDERRDGDRSPSEDEFLSCDSSSDRGEGDGQGRGGGSSKAEMELLISDEAGRAISEKERMKDRKFAWGQQRTNSEQVDEDADVDTAMASLDEQSREAQPPSPRSTSPCQTPEPDNEAHIRSSSRPCSPVHHHHEGHSKLSSSPPRASPVRMGPSYVLKKAQVPSTGGRRRKEQSYRSVISDVFNGSVLSLVQCLTCDRVSTTVETFQDLSLPIPGKEDLAKLHSAIYQNVPAKPGACGDSYSSQGWLAFIVEYIRRFVVSCTPSWFWGPVVTLEDCLAAFFAADELKGDNMYSCERCKKLRNGVKYCKVLCLPEILCVHLKRFRHEVMYSFKVSSHVSFPLEGLDLRPFLAKECTSQVTTYDLLSVICHHGTAGSGHYIAYCQNVINGQWYEFDDQYVTEVHETVVQNVEAYVLFYRKSSEEAMRERQQVVSLAAMREPSLLRFYVSREWLNKFNTFAEPGPITNHTFLCSHGGIPPNKYHYIDDLVVILPQSVWEHLYSRFGGGPAVNHLYVCSICQVEIEALAKRRRVEIDTFIKLNKAFQAEESPAVIYCISMHWFREWEAFVKGKDSEPPGPIDNSRIAQVKGSGHIQLKQGADCGQISEETWTYLSSLYGGGPEIAIRQSVAQLPDPESLHGEQKIEAETRAL
notes: Mimics unphosphorylated USP20; source: mouse SMCs, transduced with recombinant adenovirus, in protein extract/lysate; not shown: HA, N-terminal, kept
fold of USP20-WT in TRAF6 immunoprecipitates: ~2.2 fold
